Source: article PMC3411929 (Journal of structural biology, 2012)

Target: the molecule itself
Experiment: SEC

B1: human spastin amino acids 228-616 containing the E442Q mutation (domain or fragment, UniProt Q9UBP0 228-616, looked up)
chain: ESGAVPKRKDPLTHTSNSLPRSKTVMKTGSAGLSGHHRAPSYSGLSMVSGVKQGSGPAPTTHKGTPKTNRTNKPSTPTTATRKKKDLKNFRNVDSNLANLIMNEIVDNGTAVKFDDIAGQDLAKQALQEIVILPSLRPELFTGLRAPARGLLLFGPPGNGKTMLAKAVAAESNATFFNISAASLTSKYVGEGEKLVRALFAVARELQPSIIFIDQVDSLLCERREGEHDASRRLKTEFLIEFDGVQSAGDDRVLVMGATNRPQELDEAVLRRFIKRVYVSLPNEETRLLLLKNLLCKQGSPLTQKELAQLARMTDGYSGSDLTALAKDAALGPIRELKPEQVKNMSASEMRNIRLSDFTESLKKIKRSVSPQTLEAYIRWNKDFGDTTV
**Q.** With B1 as the protein, how does the “stoichiometry N” value read?
**A.** Its value is 6.
